Data on one molecule can be found in US20220153854A1 (Ablynx, published 2022).

Residue numbers refer to the chain shown, from its start.

One assay deals with T1, human OX40L (human, UniProt P23510 51-183).
T1 construct: Protein in solution or immobilised (SPR, Gyrolab); construct not described; also called huOX40L; hOX40L
T1 sequence (looked up): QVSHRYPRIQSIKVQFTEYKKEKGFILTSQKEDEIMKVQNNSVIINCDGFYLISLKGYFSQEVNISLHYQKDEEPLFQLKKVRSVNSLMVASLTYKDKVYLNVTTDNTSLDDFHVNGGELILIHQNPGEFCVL
Put plainly: Gyrolab in-solution affinity, 24 h incubation; 95% CI 64.7-91.0 pM. How it is done:
(§1) Under receptor-controlled measurements a serial dilution of OX40L (ranging from 1.3 μM-0.031 μM), IL-13 (ranging from 0.1 μM-0.25 fM), or serum albumin (ranging from 100 μM-3.2 μM) and a fixed amount of ISVD construct F027100187 (5 nM in case of OX40L, […] in case of IL-13 and 30 nM in case of HSA and cyno SA) were mixed to allow interaction and incubated for either 24 or 48 hours (in case of OX40L and IL-13) or 2 hours (in case of serum albumin) to reach equilibrium.
(§2) Biotinylated human OX40L/IL-13/serum albumin was captured in the microstructures of a Gyrolab Bioaffy 1000 CD, which contains columns of beads and was used as a molecular probe to capture free F027100187 from the equilibrated solution. The mixture of OX40L/IL13/serum albumin and F027100187 (containing free OX40UIL-13/serum albumin, free F027100187 and OX40L/IL13/serum albumin—F027100187 complexes) was allowed to flow through the beads, and a small percentage of free F027100187 was captured, which is proportional to the free ISVD construct concentration. A fluorescently labeled anti-ISVD antibody, ABH0086-Alexa647, was then injected to label any captured F027100187 and after rinsing away excess of fluorescent probe, the change in fluorescence was determined. Fitting of the dilution series was done using Gyrolab Analysis software, where KD- and receptor-controlled curves were analyzed to determine the KD value.

Another assay has as its target T2, cyno serum albumin (cynomolgus monkey).
T2 construct: also called cyno SA; cynomolgus monkey serum albumin
Briefly: Gyrolab in-solution affinity, 2 h incubation; 95% CI 9.7-10.7 nM. How it is done: as §1, §2

The target in assay [1] is T3, membrane bound cyno OX40L on CHO-KI cells (cynomolgus monkey, UniProt G7NVH7 1-183).
T3 sequence: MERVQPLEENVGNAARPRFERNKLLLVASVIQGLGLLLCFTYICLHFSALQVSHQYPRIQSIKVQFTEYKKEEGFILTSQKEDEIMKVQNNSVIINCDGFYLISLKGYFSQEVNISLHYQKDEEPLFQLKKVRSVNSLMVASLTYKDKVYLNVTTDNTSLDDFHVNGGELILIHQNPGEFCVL
Briefly: cell-based or functional assay.

For assay [2], the target named is T4, membrane bound human OX40L on CHO-KI cells (human, UniProt P23510 1-183).
T4 sequence (looked up): T3 sequence with Q55R, E73K
Put plainly: cell-based or functional assay.

Assay [3] addresses T5, cyno IL-13 (cynomolgus monkey, UniProt Q0PW92 21-132).
T5 construct: also called cynomolgus monkey IL-13
Briefly: Gyrolab in-solution affinity, 48 h incubation; 95% CI 7.0-9.3 pM. How it is done:
as §1, §2

In another assay the target is T6, human serum albumin (human, UniProt P02768 25-609).
T6 construct: also called HSA; HAS
Put plainly: Gyrolab in-solution affinity, 2 h incubation; 95% CI 6.7-8.9 nM. The procedure:
as §1, §2

Assay [4] has as its target T7, human IL-13 (human, UniProt P35225 35-146, limits assumed). Put plainly: cell-based or functional assay.
The target in assay [5] is T8, rhesus IL-13 (rhesus monkey, UniProt Q864V6 19-132, limits assumed).
T8 construct: also called rhesus monkey IL-13
Briefly: Gyrolab in-solution affinity, 48 h incubation; 95% CI 6.8-39.6 pM. How it is done: as §1, §2

For assay [6], the target named is T8, rhesus IL-13. Put plainly: Gyrolab in-solution affinity, 48 h incubation; 95% CI 9.0-49.5 pM. The procedure: as §1, §2
Assay [7] deals with T8, rhesus IL-13. Put plainly: Gyrolab in-solution affinity, 48 h incubation; 95% CI 6.3-49.5 pM. The procedure: as §1, §2
A further assay concerns the target T9, cyno OX40L (cynomolgus monkey, UniProt G7NVH7 51-183).
T9 construct: also called cyOX40L; cynomolgus monkey OX40L
T9 sequence: T1 sequence (looked up) with R5Q, K23E
Put plainly: Gyrolab in-solution affinity, 24 h incubation; 95% CI 101-156 pM. The procedure:
as §1, §2

The target in assay [8] is T7, human IL-13. Put plainly: Gyrolab in-solution affinity, 48 h incubation; 95% CI 6.4-9.1 pM. The procedure: as §1, §2
Assay [9] deals with T5, cyno IL-13. Put plainly: Gyrolab in-solution affinity, 48 h incubation; 95% CI 5.8-7.5 pM. The procedure: as §1, §2
The target in assay [10] is T5, cyno IL-13. Briefly: cell-based or functional assay.
For assay [11], the target named is T8, rhesus IL-13. Put plainly: cell-based or functional assay.
In assay [12] the target is T7, human IL-13. Briefly: cell-based or functional assay. The source holds these as a separate data set.

T5 sequence (Q0PW92 entry or part of it): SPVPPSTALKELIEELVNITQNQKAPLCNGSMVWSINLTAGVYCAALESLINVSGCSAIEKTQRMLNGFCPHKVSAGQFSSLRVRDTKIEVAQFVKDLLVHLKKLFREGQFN
T7 sequence (P35225 35-146 limits assumed): as the sequence (Q0PW92 entry or part of it) above, with S1G, K10R, V42M, N67S, R83H, V100L counted along it
T8 sequence (Q864V6 19-132 limits assumed): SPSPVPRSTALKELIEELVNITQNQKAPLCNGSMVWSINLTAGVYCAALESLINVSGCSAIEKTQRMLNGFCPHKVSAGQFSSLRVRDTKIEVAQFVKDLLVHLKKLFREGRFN
T6 sequence (P02768 25-609 limits assumed): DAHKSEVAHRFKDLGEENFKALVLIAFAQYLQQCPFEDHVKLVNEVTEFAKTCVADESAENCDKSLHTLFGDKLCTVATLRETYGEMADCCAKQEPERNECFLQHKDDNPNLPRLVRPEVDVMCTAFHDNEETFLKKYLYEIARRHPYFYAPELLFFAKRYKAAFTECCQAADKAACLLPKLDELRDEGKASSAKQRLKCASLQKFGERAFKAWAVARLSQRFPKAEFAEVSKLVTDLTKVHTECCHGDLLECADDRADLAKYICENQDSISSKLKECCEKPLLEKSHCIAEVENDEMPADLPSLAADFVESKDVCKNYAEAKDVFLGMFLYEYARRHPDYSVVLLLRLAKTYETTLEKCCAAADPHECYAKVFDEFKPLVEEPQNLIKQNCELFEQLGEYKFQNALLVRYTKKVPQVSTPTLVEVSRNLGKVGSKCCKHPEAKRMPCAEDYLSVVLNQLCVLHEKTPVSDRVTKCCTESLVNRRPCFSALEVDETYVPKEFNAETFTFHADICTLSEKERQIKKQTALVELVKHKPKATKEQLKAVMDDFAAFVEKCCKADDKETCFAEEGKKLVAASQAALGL
T2 sequence (A2V9Z4 25-608): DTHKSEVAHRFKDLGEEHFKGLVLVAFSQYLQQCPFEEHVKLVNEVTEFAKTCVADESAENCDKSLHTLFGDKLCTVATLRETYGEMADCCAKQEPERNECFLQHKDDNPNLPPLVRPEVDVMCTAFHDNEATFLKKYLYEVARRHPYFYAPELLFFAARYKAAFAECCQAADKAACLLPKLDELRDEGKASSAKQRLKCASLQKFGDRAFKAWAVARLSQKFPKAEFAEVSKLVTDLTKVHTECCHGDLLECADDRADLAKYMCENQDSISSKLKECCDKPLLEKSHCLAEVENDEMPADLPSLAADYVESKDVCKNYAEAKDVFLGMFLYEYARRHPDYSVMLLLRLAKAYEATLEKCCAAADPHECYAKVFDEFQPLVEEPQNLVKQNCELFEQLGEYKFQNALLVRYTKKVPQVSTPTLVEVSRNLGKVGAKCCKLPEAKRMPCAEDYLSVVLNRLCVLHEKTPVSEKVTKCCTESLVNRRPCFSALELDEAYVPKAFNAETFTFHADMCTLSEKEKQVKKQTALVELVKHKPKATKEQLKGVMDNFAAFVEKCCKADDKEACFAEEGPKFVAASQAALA

B1: ISVD construct F027100187 (other)
chain: DVQLVESGGGVVQPGGSLRLSCAASRSIGRYDRMGWYRHRPGEPRELVATITGGSSINYGDSVKGRFTISIDNSKNTVYLQMNSLRPEDTALYYCNFNKYQISRDTWGQGTLVTVSSGGGGSGGGSEVQLVESGGGVVQPGGSLRLSCAASGRTFSSYRMGWFRQAPGKEREFVAALSGDGYSTYTANSVKGRFTISRDNSKNTVYLQMNSLRPEDTALYYCAAKLQYVSGWSYDYPYWGQGTLVTVSSGGGGSGGGSEVQLVESGGGVVQPGGSLRLSCAASGFTFRSFGMSWVRQAPGKGPEWVSSISGSGSDTLYADSVKGRFTISRDNSKNTLYLQMNSLRPEDTALYYCTIGGSLSRSSQGTLVTVSSGGGGSGGGSEVQLVESGGGVVQPGGSLRLSCAASGFTFNNYAMKWVRQAPGKGLEWVSSITTGGGSTDYADSVKGRFTISRDNSKNTLYLQMNSLRPEDTALYYCANVPFGYYSEHFSGLSFDYRGQGTLVTVSSA
notes: Tetravalent, trispecific single-chain construct of four VHH (ISVD) domains: one against OX40L, two against IL-13, one against serum albumin; also called F0271000187; F27100187
As for B1, the Kd was found to be 0.0778 nM in the assay with human OX40L; 10.2 nM with cyno serum albumin; 0.0082 nM with cyno IL-13 [3]; 7.8 nM with human serum albumin; 0.0232 nM with rhesus IL-13 [5]; 0.0293 nM with rhesus IL-13 [6]. Moreover, the Kd worked out at 0.0141 nM in the assay with rhesus IL-13 [7], 0.128 nM with cyno OX40L, 0.0078 nM in the assay with human IL-13 [8] and 0.0067 nM with cyno IL-13 [9]. Besides, the “PBMC activity assay IC50” value in [1] is 14 nM; in [2], 1.9 nM. The “CCL26 IC50 (pM), triculture assay” value with human IL-13 [4] came to 40.7 pM. Besides, the figures for the “eotaxin release assay (IC50, pM)” value with cyno IL-13 [10], in the assay with rhesus IL-13 [11] and with human IL-13 [12] were 1940 pM, 858 pM and 259 pM, respectively.
